We go through one molecule from patent US20250236644A1 (University of Washington, published 2025).

Test in all cases: FP titration, 1 nM peptide, hinge varied
The target in test [1] is T1, TAMRA-labeled effector peptide cs221B (5(6)-TAMRA label coupled on resin after synthesis).
T1 construct: also called TAMRA-cs221B
T1 peptide: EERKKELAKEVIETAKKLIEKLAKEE
As for the experimental part:
(§1) FIG. 10. Redesign of hinges to bind other target peptides. An experimentally tested hinge (top, cs201) is redesigned using a one-sided two-state design approach to bind to different target peptides. Hinges csw13 and csw20 are designed to bind to peptides cs221B and cs074B, respectively, while having a backbone conformation that is similar to the parent cs201 that binds cs201B. Left: design models, right: FP titrations using 1 nM peptide (cs201B, cs221B, cs074B, js007B) and varying concentrations of hinge (from top to bottom: cs201, csw13, csw20). csw13 is an example of a successful orthogonal redesign that specifically binds the new target peptide cs221B while not binding the parent target peptide cs201B or the off-target peptides cs074B or js007B. csw20 is a less orthogonal example that binds the new target peptide cs074B most strongly but still binds to the parent-target peptide cs201B and to the off-target peptide cs221B albeit weaker than the new target.
(§2) All FP measurements were performed at 25° C. in 96-well plates (Corning 3686) using a Synergy Neo2™ plate reader and a 530/590 nm filter cube. The buffer for all FP measurements was 20 mM Tris-HCl, 100 mM NaCl, 0.05% v/v TWEEN20 at pH 8. Titrations were carried out in 96-well format, with 4 replicates per plate and 24 data points per titration (23 steps of two-fold serial dilution of hinges in the presence of TAMRA-labeled peptide at a constant concentration between 0.1 nM and 1 nM) with a final sample volume of 80 μl per well. Titration plates were incubated overnight at room temperature before measuring to ensure complete equilibration. The polarization signal S (as calculated by the Neo2™ software) was fitted to the equation

The target in test [2] is T2, TAMRA-labeled effector peptide js007B (5(6)-TAMRA label coupled on resin after synthesis).
T2 construct: also called TAMRA-js007B
T2 peptide: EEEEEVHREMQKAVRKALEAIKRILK
As for the experimental part:
as §1, §2

Test [3] addresses T3, TAMRA-labeled effector peptide cs201B (5(6)-TAMRA label coupled on resin after synthesis).
T3 construct: also called TAMRA-cs201B
T3 peptide: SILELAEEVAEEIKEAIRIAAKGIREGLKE
As for the experimental part: as §1, §2

For test [4], the target named is T4, TAMRA-labeled effector peptide cs074B (5(6)-TAMRA label coupled on resin after synthesis).
T4 construct: Chemically synthesized; also called TAMRA-cs074B
T4 peptide: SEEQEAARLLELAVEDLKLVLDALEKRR
As for the experimental part:
as §1, §2

B1: swapped target hinge csw13 (designed binder)
chain: MSGNEEVKKLVEEAKKYLKEAEEYIKKAKKTGNEELLEKALKLLEKALELVKKAIELDPNNKEAIEQAVEIARALNEVAELLIEEAKKTGNEELLEKALEALEAANEALKLAIENNENDKELLAEIAVELAEVGVLLAEVLIEEAKKTGDPELLKLALEVLEAAVEALELALKLDPNNEEAVELAEEAAKLLEEVAKELKEEAKKTGDPELEKLAKEAEELAKRAKELAERQRGSGSHHWGSTHHHHHH
As for B1, the binding result is “binds” in test [1], “no binding” in test [2], “no binding” in test [3] and “no binding” in test [4].
